Assay results: a protein production outcome set (Wang et al. 2014)

Experiment: label from the status in PepcDB records
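Also: failed if final PepcDB status was selected cloned or expressed and not failed if soluble or beyond.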

In the case of “MTGKAKPKKHTAKEIQAKIDAALTNRGGGKAGIADRTGKEKGGHAKYECPHCKITAPGLKTMQIHHESKHPNIIYEESKLVNLHAVLAPVAESKPKPGIRGSLKK”, the protein production is reported as “failed”.
With “MYADYEYYEKEYLLGKEPVIAERNYLYYEKQARAEVDKITFNRCRGLDEIPEEVKDCVCDVAEYLCKYDRYSGSDAPGPLASFGNDGETGTYDLSNSIYTESKRKEKIQETLYKHLADTGLLYSGR” the protein production was “failed”.
With “MEMRKIGLIGGMSFESSAVYYRLVNEAVRRRRGKLHSAEVLLHSVDFQRIVDLQRAGHWDDAALLLSDVARGLVAGGADCILICSNTMHLIADAVHASVDVPLINIIDETALRLKAAGSRKPLLLATRYTMEQGFYAERMKTHDIDLMVPDADGRTLTHNVIFDELCAGQVLNASRSAVIGLIEKAKAEGADAVILGCTEICLLLDPADLPLPGFDSTAIHAEAAVEFSLRDRQ” the protein production was “failed”.
For “MLKKVIGILVIIAIISVGFFQKEAWLDAIKAGGMFSVLFSMLLIAADVFFPIVPFALIAALNGAVFGTANGIWITLTGSMLGTILLFFLARYSFRDWARKKVQAYPAIQSYEASFNKNAFTAVLLGRLIPVIPSLVMNVICGLSQVRWHVFFFASLIGKIPNIVVVTIAGANFTSNKLLSISIYGTYILIIMLVIYKKFPHLLKVPKK”, the protein production was “failed”.
For “MDNQHNQNHIMGTLQWFIFLLANSIALPIVVGGLFHLTTEEIFYLMQRTFFVVGISSFLQGWLGHRLPIADGPAGSWVGVFTVLAYATAGQDQLHSTLQILELGMIISGIILIGLGVTGFIGRILFLFTPLVTGTFLLLLCLQLSGVFLKGMLGITATISQIDGFTAMIAFSIFLFVIILSNFGKGFVKSYAVLIGLISGWIIFLIAGKVTIPSQVTHFVQLPHIFAWGLPKWNTGMAVSSFVMVCILVSNTVAAIIAINQATIHKATIEQKQLKDGTWVGGISHIISSVFSTVGVVPLPATAGFIRLTKQKYIRSFLMACALLVVMSLFPSIIRYLASLPSAVASAVLMASFVQLIGIGFNNIKQVPMSERNVTILGVAVLFGSGVMFLPSGALQSLPSVMQYIFGNGLFVGTVVSILLEQIWRVGK”, the protein production was “not failed”.
For “MDISSTEIWDAIRRNSFLLYYQPKVDAKTNELIGFEGLIRLKTATAILAPADFFEDIALLNATREMQDFVAETAIEQINQLGGRFSISINIPAHYVVSSNYMTFLYDYVKEHLKYPECLEIEIIERGEITELAVADKNLRKIKKLGVTVSMDDFGKGYSSLAYLRSLPIDIVKTDMSFIALLKTDRKQQIIIQAIVNLCHDLGGKVVTEGVEDIEQVKTLREMKVDYFQGYYFSRPLPMKEIKEKYSIV”, the protein production was “failed”.
For “MEQRRVTDFFARRRPGPPRIAPPKLACRTPSPARPALRAPASATSGSRKRARPPAAPGRDQARPPARRRLRLSVDEVSSPSTPEAPDIPACPSPGQKIKKSTPAAGQPPHLTSAQDQDTISELASCLQRARELGARVRALKASAQDAGESCTPEAEGRPEEPCGEKAPAYQRFHALAQPGLPGLVLPYKYQVLAEMFRSMDTIVGMLHNRSETPTFAKVQRGVQDMMRRRFEERNVGQIKTVYPASYRFRQERSVPTFKDGTRRSDYQLTIEPLLEQEADGAAPQLTASRLLQRRQIFSQKLVEHVKEHHKAFLASLSPAMVVPEDQLTRWHPRFNVDEVPDIEPAALPQPPATEKLTTAQEVLARARNLISPRMEKALSQLALRSAAPSSPGSPRPALPATPPATPPAASPSALKGVSQDLLERIRAKEAQKQLAQMTRCPEQEQRLQRLERLPELARVLRSVFVSERKPALSMEVACARMVGSCCTIMSPGEMEKHLLLLSELLPDWLSLHRIRTDTYVKLDKAADLAHITARLAHQTRAEEGL”, the protein production was “failed”.
For “MKKSLIAFILIFMLVLSGCGMKDNDKQGSNDNGSSKSPYHRIVSLMPSNTEILYELGLGKYIVGVSTVDDYPKDVKKGKKQFDALNLNKEELLKAKPDLILAHESQKATANKVLSSLEKQGIKVVYVKDAQSIDETYNTFKQIGKLTHHDKQAEQLVEETKDNIDKVIDSIPAHHKKSKVFIEVSSKPEIYTAGKHTFFNDMLEKLEAQNVYSDINGWNPVTKESIIKKNPDILISTEAKTRSDYMDIIKKRGGFNKINAVKNTRIEVVNGDEVSRPGPRIDEGLKELRDAIYRK”, the protein production was “failed”.
With “MVIPFARSVPLSPNTLTLLGFAVSVAAGVAFALGKPFEGGFLILFSGVFDILDGGVARAKGRITPFGGVLDSVCDRYSDGLMFLGIMAGAIYGRLSFAPFLGVEGWLWAGFALIGSFLVSYTRARAESAGCRKLSVGIAERTERMVILALGALSGFLGWALVLIAVFSHITMIQRVLRAKSILSSPSEPESQKP” the protein production was “failed”.
In the case of “MVKLDRYIGSSVFMAILAVLGIILGLASLFAFIDEMGAVNETYTVVDVMSYVALTAPRRVYEMLPMAGLIGCLIGLGSLASNSELTIMRAAGVSVGRIVWAVMKPMLVLMLVGVLVGEYVAPATETQAQASRALAQGSGDAQSSKHGLWHRQGDEFIHINAVQPNGLLYGVTRYHFDDQRHMLSSSFARQARFHEDYWQLTDVTTTYFRDGHTEVISVPGERWDVALSPQLLSTVVMAPESLSISGLWGYIHYLADQGLNNGRYWLAFWVKVLQPLVTAALVLMAISFIFGPLRSVTLGQRVFTGVLVGFTFRIAQDLLGPSSLVFGFSPLFAVLVPAGICAVAGVWLLRRAG”, the protein production is reported as “failed”.
In the case of “FANTATVAVSQIVEHPALDATRQGLLDGLKAKGYEEGKNLEFDYKTAQGNPAIAVQIARQYVGESPDVLVGIATPSAQALVSATRTIPVVFTAVTDPVGAKLVKSMKQPGKNVTGLSDLSPVAQHVELIQEILPQVKSIGVVFNPGEANAVTLVNLLKESAEAKGIKVVEATALKSADVQSATQAIAAKSDILYAPTDNTVASAIEGMIVAANQAKKPVFGGATSYVEKGAIAGLGFDYYQVGVQTADYVAAILDGQEPGKLDVKVATGSDLVINESAASKLGIQLPSSVVQRATSMQ”, the protein production is reported as “failed”.
For “MKIATYNVRVDTEYDQDWQWSFRKEAVCQLINFHDWSLCCIQEVRPNQVRDLKAYTTFTCLSAEREGDGQGEGLAILYNEQKVQAIDTGYFWLSETPQQPSIHPEAGCPRIALWGLFKETTQNTPFLVINVHLDHISAHARLAGMTVILEELHDKIAQYPTLLMGDFNAESGEEVHQLVQKKFQDSKNLATHYGPRGTFQNFTYTKPWAELEEIDYIYVKGWQVQQTASLTDSIDGRFPSDHFPLEAEV”, the protein production was “not failed”.
